Measurements taken from patent publication US12442042B2, “Epigenomic profiling reveals the somatic promoter landscape of primary gastric adenocarcinoma” (AGENCY FOR SCIENCE, TECHNOLOGY AND RESEARCH, priority 2016, dated 2025).

What was measured:
[1] = tested on: GES1 cells; experiment: Cell proliferation assay (WST-8); assay type: cell-based; details: 24 to 120 hours post-transfection
Method: (§1) 3×10^3 GES1, SNU1967 and AGS cells were plated into 96-well plates in media with 10% fetal bovine serum and left overnight to attach. The next day (Day 0), cells were transiently transfected with wild-type and variant RASA3 constructs using Lipofectamine 3000 (Thermo Scientific). The amount of the constructs was 40 ng/well for AGS and 100 ng/well for GES1 and SNU1967 cells. Cell proliferation was measured by the WST-8 assay (Cell Counting Kit-8, Dojindo) from 24 to 120 hours post-transfection. 10 μL of WST-8 solution was added per well and the absorbance reading was measured at 450 nm after 2 hours of incubation in a humidified incubator.

[2] = tested on: SNU1967 cells; experiment: Cell proliferation assay (WST-8); assay type: cell-based; details: 24 to 120 hours post-transfection
Method: as §1

[3] = tested on: AGS cells; experiment: Cell proliferation assay (WST-8); assay type: cell-based; details: 24 to 120 hours post-transfection
Method: as §1

[4] = tested on: HLA-A*02:06 T cells; experiment: IFN-γ assay: primed T cells co-cultured with AGS cells expressing RASA3 isoforms (ELISA); assay type: cell-based, human; details: T cells primed with the isoform, co-cultured with AGS cells expressing the same isoform, two days
Method: To test the immunogenicity of the RASA3 WT and Variant protein sequences, CD14+ monocytes were isolated from a HLA-A*02:06 donor by positive selection using magnetic beads (Miltenyi, Germany). Dendritic cells were generated by GM-CSF (1000 IU/ml) and IL-4 (400 IU/ml), and further matured by TNF (10 ng/ml), IL-1b (10 ng/ml), IL-6 (10 ng/ml) (Miltenyi, Germany) and PGE2 (1 μg/ml) (Stemcell Technologies, Canada) for 24 hours. The DCs were then primed with AGS cell lysates expressing WT RASA3 or Variant RASA3 for 24 hours, before being co-cultured with T cells from the same donor at the ratio of 1:5. After 5 days of co-culture with DC, T cells were isolated by positive selection using CD3 magnetic beads (Miltenyi, Germany) and co-cultured with AGS cells expressing either WT or Variant RASA3 at the ratio of 20:1 for two days. Supernatants were harvested and IFN-γ release was measured by ELISA (R&D, USA).

[5] = tested on: GES1 cells; experiment: Transwell migration assay; assay type: cell-based; details: GES1 cells transfected with isoform, 24 h
Method: (§2) To determine cell migratory capacities, RASA3 wild type and variant transfected AGS and GES1, SNU1967 and AGS, and siRNA treated NCC24 cells were tested using Corning Costar 6.5 mm Transwell with 8.0 μm Pore Polycarbonate Membrane Inserts (3422, Corning, NY, USA). 2.5×10^4 AGS cells and 2×10^4 GES1 cells, 3×10^4 SNU1967 cells and 5×10^4 NCC24 cells were suspended in 0.1 ml serum-free RPMI medium and added to the top of the Transwell insert. 0.6 ml RPMI containing 10% FBS was added into the bottom well as a chemoattractant. After incubation for 24 h at 37° C. in a 5% CO2 incubator, cells were fixed with 3.7% formaldehyde and permeabilized with 100% methanol. Non-migrated cells were scraped off with cotton swabs from the upper surface of the membrane. Migrated cells were stained with 0.5% crystal violet. The number of migrated cells were represented as the total area of migrated cells vs the area of transwell membrane calculated using ImageJ software. For cell invasion assays, the above Transwell inserts were coated with 0.1 ml (300 μg/mL) Corning Matrigel matrix (354234, Corning, NY, USA) for 2 to 4 h at 37° C. before use. All subsequent steps were identical to the migration assay protocol.

[6] = tested on: AGS cells; experiment: Transwell migration assay; assay type: cell-based; details: KRAS mutated AGS cells transfected with isoform, 24 h
Method: as §2

[7] = tested on: GES1 cells; experiment: Matrigel invasion assay; assay type: cell-based; details: GES1 cells transfected with isoform
Method: as §2

[8] = tested on: SNU1967 cells; experiment: Matrigel invasion assay; assay type: cell-based; details: SNU1967 cells transfected with isoform
Method: as §2

[9] = tested on: RAS; experiment: RAS-GTP assay (Active RAS pull-down) in GES1 cells; assay type: cell-based; details: vs empty vector or RASA3 SomT
Method: GES1 cells were transfected with either RASA3 CanT, RASA3 SomT or empty vector for 48 hours. Cells were harvested for protein in FBS containing media or subjected to over-night serum starvation followed by serum stimulation for 30 minutes prior to harvest. Proteins were extracted using ice-cold lysis buffer (Active RAS Pull-down and Detection Kit) containing protease inhibitor cocktail (Nacalai Tesque). Active RAS fraction was obtained using the Active RAS Pull-down and Detection Kit (Thermo Fisher Scientific) according to manufacturer's instructions. Total RAS was measured in corresponding whole cell protein lysates. β-actin was used as a loading control. Protein concentrations were determined using the Pierce BCA protein assay (Thermo Scientific). SDS sample buffer was added to the lysates and boiled at 100° C. for 5 minutes. Samples were loaded in each well of a 4-15% Mini-Protean TGX gel (Biorad) and transferred to a PVDF membrane using a semi-dry blotting system (Biorad). Membranes were probed with anti-RAS (1 in 200 dilution, supplied in Active RAS Pull-down and Detection Kit), or B-actin (1 in 5000 dilution, Sigma A5316) in 5% milk-PBST at 4° C. over-night. Secondary anti-mouse antibody (LNA931, Amersham) was used at a dilution of 1 in 2000 for 1 hour at room temperature. […]

B1: RASA3 CanT: canonical full-length RASA3 protein isoform, transfected construct (protein, UniProt Q14644 1-834, looked up)
chain: MAVEDEGLRVFQSVKIKIGEAKNLPSYPGPSKMRDCYCTVNLDQEEVFRTKIVEKSLCPFYGEDFYCEIPRSFRHLSFYIFDRDVFRRDSIIGKVAIQKEDLQKYHNRDTWFQLQHVDADSEVQGKVHLELRLSEVITDTGVVCHKLATRIVECQGLPIVNGQCDPYATVTLAGPFRSEAKKTKVKRKTNNPQFDEVFYFEVTRPCSYSKKSHFDFEEEDVDKLEIRVDLWNASNLKFGDEFLGELRIPLKVLRQSSSYEAWYFLQPRDNGSKSLKPDDLGSLRLNVVYTEDHVFSSDYYSPLRDLLLKSADVEPVSASAAHILGEVCREKQEAAVPLVRLFLHYGRVVPFISAIASAEVKRTQDPNTIFRGNSLASKCIDETMKLAGMHYLHVTLKPAIEEICQSHKPCEIDPVKLKDGENLENNMENLRQYVDRVFHAITESGVSCPTVMCDIFFSLREAAAKRFQDDPDVRYTAVSSFIFLRFFAPAILSPNLFQLTPHHTDPQTSRTLTLISKTVQTLGSLSKSKSASFKESYMATFYEFFNEQKYADAVKNFLDLISSSGRRDPKSVEQPIVLKEGFMIKRAQGRKRFGMKNFKKRWFRLTNHEFTYHKSKGDQPLYSIPIENILAVEKLEEESFKMKNMFQVIQPERALYIQANNCVEAKDWIDILTKVSQCNQKRLTVYHPSAYLSGHWLCCRAPSDSAPGCSPCTGGLPANIQLDIDGDRETERIYSLFNLYMSKLEKMQEACGSKSVYDGPEQEEYSTFVIDDPQETYKTLKQVIAGVGALEQEHAQYKRDKFKKTKYGSQEHPIGDKSFQNYIRQQSETSTHSI
modifications: full-length
notes: canonical full-length RASA3 protein isoform, transfected construct
Q: What does the source list for B1?
A: cellular proliferation rate [1]: did not alter; cellular proliferation rate [2]: did not alter; cellular proliferation rate [3]: did not alter; IFNγ release from primed T cells [4]: significantly more; migration [5]: did not; migration [6]: potently suppressed; migration ([6]; listed as RASA3 WT): more potent migration suppression; invasion [7]: did not; invasion [8]: significantly suppressed; levels of active GTP-bound RAS [9]: lower levels of active GTP-bound RAS
